Laboratory results reported in patent US20230295295A1 (published 2023).
Changes are numbered by the printed parent chain. Values joined by “and” are separate entries in the source; they are usually repeats but may differ in a detail not shown here. Equal entries are not always repeated.

Experiments:
[1] = target: T1, Recombinant human LAG-3 ECD-His6 (human, UniProt P18627 23-433); experiment: SPR Biacore T100, Anova comparison of KD on LAG-3 ECD-His6
T1 construct: also called LAG-3-His; recombinant human LAG-3-His
T1 sequence: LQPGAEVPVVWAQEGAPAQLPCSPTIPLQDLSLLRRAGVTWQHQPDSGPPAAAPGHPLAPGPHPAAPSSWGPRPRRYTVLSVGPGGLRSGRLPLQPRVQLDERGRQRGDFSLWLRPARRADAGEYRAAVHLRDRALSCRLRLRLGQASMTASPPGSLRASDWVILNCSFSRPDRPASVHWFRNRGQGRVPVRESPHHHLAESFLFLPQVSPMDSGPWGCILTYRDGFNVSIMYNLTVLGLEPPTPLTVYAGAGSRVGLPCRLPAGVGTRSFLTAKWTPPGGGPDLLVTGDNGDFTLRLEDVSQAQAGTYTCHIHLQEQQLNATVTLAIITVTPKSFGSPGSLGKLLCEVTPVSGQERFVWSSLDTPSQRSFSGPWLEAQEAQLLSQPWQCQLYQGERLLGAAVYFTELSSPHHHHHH
Procedure: (§1) Wild type fucosylated and afucosylated antibodies were compared for their ability to bind to recombinant human LAG-3 ECD with a C-terminal His6 (SEQ ID NO:51) using the Biacore® T100 (GE Healthcare®). Protein A was immobilised on a CM5 chip by primary amine coupling. This surface was then used to capture the humanised antibodies. Recombinant human LAG-3 ECD-His6 was then passed over the captured antibodies at 32, 8, 2, 0.5 and 0.125 nM and regeneration was carried out using 50 mM NaOH. The binding curves were double referenced with buffer injection (i.e. 0 nM) and the data was fitted to the T100 analysis software using the 1:1 model. The run was carried out at 25° C., using HBS-EP as the running buffer.
(§2) In order to investigate the statistical significance of this kinetic data, this experiment was repeated 3 times with the same batch of the four antibodies and the chimeric control. KD, ka and kd parameters were each log (base 10) transformed prior to separate statistical analyses. For each parameter, a mixed model analysis of variance (‘Anova’) was performed on transformed data, including terms for Run (random block effect) and Antibody.
(§3) From the Anova, geometric means were predicted for each antibody, along with statistically plausible ranges (95% confidence intervals) for each mean. Planned comparisons of antibodies were performed within the Anova. […]

[2] = target: T2, Recombinant cynomolgus macaque LAG-3 ECD-His6 (cynomolgus macaque, UniProt P18627 24-433 (human entry)); experiment: SPR Biacore T100, antibody captured on protein A, LAG-3 ECD-His6 analyte, 37 C, 1:1 model
T2 construct: made in house; also called cyno LAG-3
T2 chain: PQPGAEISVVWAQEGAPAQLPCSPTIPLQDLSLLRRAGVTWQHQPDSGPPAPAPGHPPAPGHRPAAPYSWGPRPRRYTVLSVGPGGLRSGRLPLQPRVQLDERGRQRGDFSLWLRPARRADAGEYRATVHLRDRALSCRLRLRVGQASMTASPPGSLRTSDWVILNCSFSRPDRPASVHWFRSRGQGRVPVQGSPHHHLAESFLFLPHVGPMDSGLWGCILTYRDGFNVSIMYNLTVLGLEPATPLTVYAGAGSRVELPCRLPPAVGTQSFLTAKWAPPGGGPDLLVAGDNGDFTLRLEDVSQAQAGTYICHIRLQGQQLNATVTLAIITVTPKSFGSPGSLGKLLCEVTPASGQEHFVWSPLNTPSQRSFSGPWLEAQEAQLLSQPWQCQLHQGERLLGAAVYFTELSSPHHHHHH
Procedure: (§4) The binding cross reactivity of anti-LAG-3 humanised antibodies for both cynomolgus macaque (cyno) and baboon recombinant LAG-3 ECD-His6 (SEQ ID NOs 52 and 53, respectively) was assessed using the Biacore® T100 (GE Healthcare®).
(§5) Protein A was immobilised on a CM5 chip by primary amine coupling. This surface was then used to capture the humanised antibodies. In-house generated recombinant cynomolgus macaque and baboon LAG-3 ECD-His6 were then passed over the captured antibodies and regeneration was carried out using 50 mM NaOH. LAG-3 ECD-His6 was passed over at 16, 4, 1, 0.25 and 0.0625 nM. The binding curves were double referenced with buffer injection (i.e. 0 nM) and the data was fitted to the T100 analysis software using the 1:1 model. The run was carried out at 37° C. using HBS-EP as the running buffer.

[3] = target: T3, Recombinant baboon LAG-3 ECD-His6 (baboon, UniProt P18627 24-433 (human entry)); experiment: as above
T3 construct: made in house
T3 chain: T2 chain with R188Q, G193E, A243T, A288V, D293N, H357R
Procedure: as §4, §5

[4] = target: T1, Recombinant human LAG-3 ECD-His6; experiment: SPR Biacore T100, antibody captured on protein A, LAG-3 ECD-His6 analyte, 25 C, 1:1 model, geometric mean of 3 runs
Procedure: as §1, §2, §3

[5] = target: T1, Recombinant human LAG-3 ECD-His6; experiment: SPR Biacore T100, Anova comparison of kd on LAG-3 ECD-His6
Procedure: as §1, §2, §3

[6] = target: T4, Human LAG-3 expressed on cells (human, UniProt P18627 23-525); experiment: cell-based or functional assay
T4 sequence (looked up): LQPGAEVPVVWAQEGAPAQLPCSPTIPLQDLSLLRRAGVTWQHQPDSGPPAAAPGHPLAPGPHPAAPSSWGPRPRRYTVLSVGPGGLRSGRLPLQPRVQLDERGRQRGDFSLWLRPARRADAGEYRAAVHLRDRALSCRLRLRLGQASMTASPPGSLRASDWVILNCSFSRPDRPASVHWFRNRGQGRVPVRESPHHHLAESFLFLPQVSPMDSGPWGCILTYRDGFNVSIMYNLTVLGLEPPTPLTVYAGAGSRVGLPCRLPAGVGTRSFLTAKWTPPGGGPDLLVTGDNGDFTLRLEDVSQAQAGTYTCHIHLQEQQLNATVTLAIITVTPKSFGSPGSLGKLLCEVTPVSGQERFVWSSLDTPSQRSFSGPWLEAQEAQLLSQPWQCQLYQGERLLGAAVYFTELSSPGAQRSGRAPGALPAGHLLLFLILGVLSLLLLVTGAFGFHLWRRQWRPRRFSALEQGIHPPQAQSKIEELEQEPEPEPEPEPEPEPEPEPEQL

- KD ratio (H5L7BW against H5L7) [1]: 1.05
- Kd [2]: 21 pM
- Kd [3]: 24 pM
- koff [4]: 0.00441 s⁻¹
- kd ratio (H5L7BW against H5L7) [5]: 1.12
- EC50, depletion of antigen specific CD4 T cells by ADCC (primary human T cells, autologous NK cells) [6]: 14 pg/mL and 3.4 ng/mL
- EC50, depletion of antigen specific LAG-3 positive CD8 T cells by ADCC [6]: 0.122 ng/mL and 17.5 ng/mL
B1: H5L7BW (antibody, human IgG1, kappa, V domains shown)
VH: QVQLQESGPGLVKPSETLSLTCTVSGFSLTAYGVNWIRQPPGKGLEWIGMIWDDGSTDYDSALKSRVTISVDTSKNQFSLKLSSVTAADTAVYYCAREGDVAFDYWGQGTLVTVSS
VL: DIQMTQSPSSLSASVGDRVTITCKSSQSLLNPSNQKNYLAWYQQKPGKAPKLLVYFASTRDSGVPSRFSGSGSGTDFTLTISSLQPEDFATYYCLQHFGTPPTFGQGTKLEIKR
notes: Afucosylated form of H5L7: plasmids encoding H5L7 expressed in the BioWa Potelligent (FUT8 knock-out CHO) cell line; also called afucosylated H5L7BW
